Reference: publication PMC2649111

Legend:
Test in all cases: SEC
[1] = target: Full-length cytoplasmic C-terminal domain (VARC 1–392) of PfEMP1 (PF08_0141), unphosphorylated (P. falciparum 3D7)
[2] = target: VARC 87–392 of PfEMP1 (PF08_0141) (P. falciparum 3D7)
[3] = target: VARC 87–291 of PfEMP1 (PF08_0141) (P. falciparum 3D7)
[4] = target: VARC 1–291 of PfEMP1 (PF08_0141) (P. falciparum 3D7)

Full-length cytoplasmic C-terminal domain (VARC 1–392) of PfEMP1 (PF08_0141), unphosphorylated (domain or fragment)
stoichiometry N [1]: 2

VARC 87–392 of PfEMP1 (PF08_0141) (domain or fragment)
stoichiometry N [2]: 2

VARC 87–291 of PfEMP1 (PF08_0141) (domain or fragment)
stoichiometry N [3]: 2

VARC 1–291 of PfEMP1 (PF08_0141) (domain or fragment)
stoichiometry N [4]: 2
